Experimental findings from patent US20190298770A1 (IOVANCE BIOTHERAPEUTICS, published 2019) are described below.

The target in experiment [1] is T1, Programmed Death 1 Ligand 1 (PD-L1) (human, UniProt Q9NZQ7 19-290).
T1 construct: also called CD274; B7-H1
Put plainly: flow cytometry of 293-PD-L1 stained with 10 fold concentrated supernatant of TIL line M1015, Alexa 647 anti-human Fcγ [panel C].

Experiment [2] addresses T1, Programmed Death 1 Ligand 1 (PD-L1). Put plainly: flow cytometry on EL4 PD-L1 cells, goat anti-human FITC, % of PD-L1 positive cells.

T1 sequence (Q9NZQ7 19-290): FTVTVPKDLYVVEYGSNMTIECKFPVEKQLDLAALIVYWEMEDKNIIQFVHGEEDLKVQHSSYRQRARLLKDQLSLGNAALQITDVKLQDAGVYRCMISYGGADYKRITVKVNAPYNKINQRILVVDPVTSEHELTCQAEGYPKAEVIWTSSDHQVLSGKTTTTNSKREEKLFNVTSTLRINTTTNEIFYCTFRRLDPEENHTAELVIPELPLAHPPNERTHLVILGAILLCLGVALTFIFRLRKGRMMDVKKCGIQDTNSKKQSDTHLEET

In the case of FMC63-scFV-Fc (Fc fusion), the % of cells in the upper left (PDL1 positive) quadrant in experiment [1] worked out at 1.02%.

B1: anti-PD-L1 ScFV clone 38A1 (scFv)
scFv: EVQLVESGGGLVQPGGSLRLSCAASGFTFSNYAMSWVRQAPGKGLEWVSTISGSGGTTYYADSVKGRFTISRDNSKNTLYLQMNSLRVEDTAVYYCAKDWFRSSSPDAFDIWGQGTTVTVSAGGGGSGGGGSGGGGSGAPSYVLTQPPSVSVAPGQTARITCGGNNIGRKIVHWYQQRPGQAPVLVIYYDTDRPAGIPERFSGSNSGNMATLTISTVGAGDEADYYCQVWDTGSDHVVFGGGTKLTVL
notes: also called 38A1-scFV; scFV 38A1
Regarding B1, the binding result in experiment [2] is reported as “binds”.

B2: anti-PD-L1 ScFV clone 19H9 (scFv)
scFv: QVQLQESGGGLVKPGGSLRLSCAASGFTFSSYSMNWVRQAPGKGLEWVSGINTAGDTHYPESVKGRFTISRDNARNSLNLQMNSLRAEDTAVYYCVRERVEREYSGYDAFDIWGQGTTVTVSAGGGGSGGGGSGGGGSGAPNFMLTQPHSVSESLGKTVTISCTGSSGSIARKFVQWYQQRPGSSPTTVIYENNQRPSGVSDRFSGSIGSSSNSASLTISGLKTEDEADYYCQSYDSSNVVFGGGTKVTVL
notes: also called 19H9-scFV; scFV 19H9
Regarding B2, the binding result in experiment [2] is recorded as “binds”.
